Changes are numbered by the printed parent chain. Names and notes keep the numbering of the source.

For experiment [1], the target named is Wild-type human Tie2 ectodomain (residues 1-442) surface expression construct on DT40 cells (human) (UniProt P09619). Description: flow cytometry, ligand titrated on DT40 cells displaying wild-type Tie2 ectodomain; apparent Kd. A general note: In flow cytometry, cells or beads pass a laser one at a time.
The target of experiment [2] is T1, Angiopoietin-2 (human, UniProt O15123 19-496, limits assumed).
T1 construct: also called Ang2; biotinylated Ang2
T1 sequence (looked up): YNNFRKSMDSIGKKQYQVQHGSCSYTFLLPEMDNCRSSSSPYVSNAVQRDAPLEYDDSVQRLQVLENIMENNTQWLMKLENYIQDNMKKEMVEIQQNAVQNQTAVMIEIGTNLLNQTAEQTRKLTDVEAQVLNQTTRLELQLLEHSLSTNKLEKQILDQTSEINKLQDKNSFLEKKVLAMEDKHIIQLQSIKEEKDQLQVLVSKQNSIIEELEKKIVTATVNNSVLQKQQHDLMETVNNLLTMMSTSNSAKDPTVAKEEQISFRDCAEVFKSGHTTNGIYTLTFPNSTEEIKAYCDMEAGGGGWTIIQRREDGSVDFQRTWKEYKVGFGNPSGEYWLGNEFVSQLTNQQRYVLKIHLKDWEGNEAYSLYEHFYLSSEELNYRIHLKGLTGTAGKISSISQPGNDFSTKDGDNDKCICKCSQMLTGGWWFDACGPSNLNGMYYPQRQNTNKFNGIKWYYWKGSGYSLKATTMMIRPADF
Description: SPR (ForteBio Octet), ectodomain-Fc immobilised; wild-type ectodomain. How it is done: (§1) Surface plasmon resonance was performed using a ForteBio Octet instrument (Pall Life Sciences). Fusion proteins were immobilised at 5 μg/ml on sensors and kinetic binding assays perfoinied as detailed by the manufacturer.
In general terms: Biolayer interferometry detects binding as a change in optical thickness at a sensor tip.

The target of experiment [3] is T2, Angiopoietin-1 (human, UniProt Q15389 20-498, limits assumed).
T2 construct: also called Ang1; His6-tagged Ang1
T2 sequence (looked up): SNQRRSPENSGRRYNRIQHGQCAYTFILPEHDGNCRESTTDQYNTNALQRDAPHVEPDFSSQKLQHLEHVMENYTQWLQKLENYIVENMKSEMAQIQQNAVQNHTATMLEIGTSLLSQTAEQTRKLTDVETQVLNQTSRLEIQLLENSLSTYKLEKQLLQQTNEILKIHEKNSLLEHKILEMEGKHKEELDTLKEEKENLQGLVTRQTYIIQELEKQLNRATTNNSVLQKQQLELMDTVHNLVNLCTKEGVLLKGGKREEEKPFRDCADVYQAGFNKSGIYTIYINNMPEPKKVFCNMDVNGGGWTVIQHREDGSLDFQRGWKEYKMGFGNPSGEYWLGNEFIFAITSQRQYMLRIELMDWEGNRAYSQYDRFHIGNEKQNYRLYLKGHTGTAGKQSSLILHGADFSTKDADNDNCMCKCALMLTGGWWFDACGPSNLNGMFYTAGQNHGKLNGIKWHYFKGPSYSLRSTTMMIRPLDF
Description: SPR as named in the filing, panel headed 'Binding of Wt and R3 I161G mutant to Ang1', concentrations not given. Here is the method:
as §1

Experiment [4] has as its target T1, Angiopoietin-2. The experiment in a line: SPR as named in the filing, panel headed 'Binding of R3 and R3 I161G binding to Ang2', concentrations not given. How it is done:
as §1

Experiment [5] addresses T2, Angiopoietin-1. The experiment in a line: SPR as named in the filing (ForteBio Octet), ectodomain-Fc immobilised on the sensor, Ang1 in solution, concentrations not given. Here is the method: as §1
The target in experiment [6] is T1, Angiopoietin-2. The experiment in a line: SPR (ForteBio Octet), ectodomain-Fc immobilised; evolved (R3) ectodomain. How it is done: as §1

Chain of Wild-type human Tie2 ectodomain (residues 1-442) surface expression construct on DT40 cells (human) (P09619 514-562 limits assumed, form in doubt): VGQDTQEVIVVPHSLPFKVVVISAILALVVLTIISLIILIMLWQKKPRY

For “Angiopoietin-1 (from UniProt Q15389 20-498) (ligand)”, the Kd in experiment [1] is 0.7 nM.

B1: Wild-type Tie2 ectodomain (1-442)-Fc fusion protein (Fc fusion)
chain (part 1 of 2): AMDLILINSLPLVSDAETSLTCIASGWRPHEPITIGRDFEALMNQHQDPLEVTQDVTREWAKKVVWKREKASKINGAYFCEGRVRGEAIRIRTMKMRQQASFLPATLTMTVDKGDNVNISFKKVLIKEEDAVIYKNGSFIHSVPRHEVPDILEVHLPHAQPQDAGVYSARYIGGNLFTSAFTRLIVRRCEAQKWGPECNHLCTACMNNGVCHEDTGECICPPGFMGRTCEKACELHTFGRTCKERCSGQEGCKSYVFCLPDPYGCSCATGWKGLQCNEACHPGFYGPDCKLRCSCNNGEMCDRFQGCLCSPGWQGLQCEREGIQRMTPKIVDLPDHIEVNSGKFNPICKASGWPLPTNEEMTLVKPDGTVLHPKDFNHTDHFSVAIFTIHRILPPDSGVWVCSVNTVAGMVEKPFNISVK
chain (part 2 of 2): HHHHHH
notes: Secreted from HEK293 cells, about 80 kDa, purified on Ni-NTA; also called wild-type ectodomain; Wt; not shown: human Fc tag
B1 displayed a Kd in experiment [2] of 4.1 nM.

B2: R3 I161G mutant Tie2 ectodomain (Glycine at 161, deleted at R167 and H168) (Fc fusion)
chain: AMDLILINSLPLVSDAETSLTCIASGWRPHEPITIGRDFEALMNQHQDPLEVTQDVTREWAKKVVWKREKASKINGAYFCEGRVRGEAIRIRTMKMRQQASFLPATLTMTVDKGDNVNISFKKVLIKEEDAVIYKNGSGIHSVPEVPDILEVHLPHAQPQDAGVYSARYIGGNLFTSAFTRLIVRRCEAQKWGPECNHLCTACMNNGVCHEDTGECICPPGFMGRTCEKACELHTFGRTCKERCSGQEGCKSYVFCLPDPYGCSCATGWKGLQCNEACHPGFYGPDCKLRCSCNNGEMCDRFQGCLCSPGWQGLQCEREGIQRMTPKIVDLPDHIEVNSGKFNPICKASGWPLPTNEEMTLVKPDGTVLHPKDFNHTDHFSVAIFTIHRILPPDSGVWVCSVNTVAGMVEKPFNISVK
notes: also called new mutant; improved Ang2 ligand-trap; not shown: the other soluble ectodomains carried a human Fc tag and His6
Consider B2, for which the figures for the binding result in experiment [3] and in experiment [4] were “no binding” and “binds”, respectively.

B3: Evolved (R3) Tie2 ectodomain-Fc fusion protein (F161I, ΔR167, ΔH168) (Fc fusion)
chain (part 1 of 2): B2 chain with G139I
chain (part 2 of 2): HHHHHH
notes: also called R3 ectodomain; evolved ectodomain; not shown: human Fc tag
Consider B3, for which, in experiment [5], the binding result is “no binding”. Moreover, in experiment [6], the Kd came to 2.4 nM.

The values above are taken from patent US20150322414A1 (UNITED KINGDOM RESEARCH AND INNOVATION, published 2015).
